Experimental data reported in the supplement of paper PMC9170038.

Test system: K4 kissing-loop RNA reporter
Test: apparent KD of K4 kissing-loop reporter; higher = weaker reporter binding
Conditions: Eterna round: R107
Method: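 RNA-MaP round R107: designed RNA switches with theophylline, tryptophan, arginine or FMN aptamers are transcribed on-chip within common flanks. They are titrated with a labelled K4 kissing-loop RNA reporter in RNA-MaP buffer (100 mM Tris pH 7.5, 80 mM KCl, 4 mM MgCl2), without ligand or with the indicated ligand. Median apparent KD per design.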

[1] = input ligand: theophylline 20 uM
[2] = input ligand: tryptophan 2.4 mM
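Also: bound reporter read as fluorescence of individual clusters on recovered sequencing chips by microscopy, with normalized cluster intensities fitted with a binding model.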

Sequence | apparent KD of K4 kissing-loop reporter (input ligand: FMN 200 uM) [nM] | apparent KD of K4 kissing-loop reporter (input ligand: arginine 13.2 mM) [nM] | apparent KD of K4 kissing-loop reporter (input ligand: none) [nM] | apparent KD of K4 kissing-loop reporter [1] [nM] | apparent KD of K4 kissing-loop reporter [2] [nM]
CAUAUAUACACUAACCCGUACGGUAGUAAGCGAGGACCGGUACGGCCGCCACUCGAUCGUUUCGUGUUAGCACCAGUGAUGUUGG [theeternabot_sameState_KL_Trp_A_3] | 461 | 399 | 526 | 431 | 392
CAUCUCAUGAAAUGAGAUGUCAUCAGUGAAGGAGCGCUAUUAGCAGCAGGUAGGUCGCACUGAAGCGGAGUGAUGUUCUGUAUGA [Arg A SS t3] | 170 | 220 | 293 | 214 | 150
CAUGCCAUGAUCCUCCUGGUAUCUCCUGAUACCAGCGUGCUGACACGCCCUUGGCAGCAGGAGUCGAGAGUGAUGUUGUCGAGAA [KL-SSTheo-A9 #analogue] | 568 | 174 | 184 | 373 | 328
CAUGGAGUGAUGCUCCAUGAUCGGGCUUGGCAGGAUAUGGGAUUUUCCAGAAGGGUCGAUCCCAGCGAGUGAUGUUCGCUGGUCU [Exclusion FMN A GF 26] | 106 | 121 | 126 | 151 | 116
CCAGAAUAAUGAAGAUGAUAAAUUACUGAAGGAGCGCAUAUAGUUGCAGGUAGGUCGCGGUGAAUAAGUAUAGUGAUGUUAUACC [SSArgA.Ad] | 261 | 209 | 256 | 260 | 255
CCAGCAAAGCUGGUCGCCAAACAACGGGCACGAGGACCGGUACGGCCGCCACUCGUGAGGACGAGUGAUGUUCGUUCACGGGCGA | 815 | 587 | 1690 | 602 | 302
CCAGCGGGCACGGCCGCCACUCUCUCGAGUGAUGUUUGCGGAGUCAGGCCGGCUCAGUACGUCACGAGGACCGGGUGCAAUUUAC [theeternabot_exclusion_KL_Trp_B_40] | 986 | 425 | 829 | 506 | 460
CCAGGACGAUGAGGAUGAUGAAUUACUGAAGGAGCGCAUAUGGUUGCAGGUAGGUCGCGGUGAACAAGUAUAGUGAUGUUAUGCC [SSArgA.V] | 704 | 424 | 693 | 519 | 631
CCAGGAUGAUGAGGAUGAUAAAUUACUGAAGGAGCGCAUAUGGUUGCAGGUAGGUCGCGGUGAAUAAGUAUAGUGAUGUUAUGCC [SSArgA.Y] | 970 | 612 | 561 | 801 | 761
CCAUCGCUAUUCGAUACCAGUCAGGAGGUCUUUGGCCUCCUAAUGGAGUGAUGUUCCUUAGACCCUUGGCAGCGAAUAGUGAUGG [Theophylline B K4 14] | 630 | 171 | 405 | 448 | 249
CCAUUCAGUUACGAUACCAGUCUAAUAUAUUUGAUCAAAACCCUCGCCGAGUGAUGUUCGGACCCUUGGCAGCGUCUGGGACAGG [xxcetmullin] | 481 | 399 | 421 | 379 | 344
CCAUUCUUUUACGAUACCAGUCUAAUAUAUUUAAUCAAAACCCUCGCCGAGUGAUGUUCGGACCCUUGGCAGCGUCUGCGAGAGG [ettyxtkmullin] | 606 | 472 | 758 | 603 | 495
CCCGCGUCGUUAGUGAUGUUGACUUCUGAUACCAGUCGCAGGUAGGACCCUUGGCAGCAGCAGUUUUGUUAUAUGUAGGAUCCAG [theeternabot_exclusion_KL_Theo_A_36] | 727 | 201 | 717 | 445 | 490
CCCGUACCAGUGAUGUUGGUAUGGUCUGAUACCAGUCUGUAGUCGGGCCCUUGGCAGCAGACCCUUGCCAAGGUGACGACUCCGG [Qu] | 128 | 146 | 126 | 131 | 132
CCCGUGGGUUUGAGAGGGCUUGUGGGAAGUAAGGAUAUUUAGGGAGAAAGAAGGUACUAUAGAAUAUAGUGAUGUUAUAUAUGGG [#06 K4 FMN A Same State] | 238 | 218 | 232 | 126 | 170
CCCUCACGAGUGAUGUUCGUAGGGUACAGUCAGGAUAUCAUGCGGUUGAGAAGGGACAGGAAGGGCGGCGGCGGGUUGCUCACCG [Atera] | 154 | 163 | 192 | 204 | 150
CCGGGCGGCCGAAGGAGCGGGCGGACCCGAGUGAUGUUCGGGUGGACCGUGAGGUCCGGUGCCCAGGUAGGUCGCGGUUCCGUCC [#2 Same State - Arginine B Attempt #6 (HarryS)] | 200 | 101 | 159 | 97.5 | 121
CCGGUUCCAACGCUGACUGAAGAACAUGAUACCAGUCGAGGACUCGACCCUUGGCAGCAUUAUAGAGUGAUGUUCGCUUCAGAAA [theeternabot_sameState_KL_Theo_A_15] | 157 | 140 | 189 | 367 | 117
CCGUGGAGUGAUGUUCCACGUAAUACGGAUACCAGCUUUGCCAAAGGCCCUUGGCAGCCGCACGUUGCAGUGAUGUUGUGGCGCG [Same State Theophylline A G8] | 191 | 143 | 183 | 162 | 150
CCGUGGCCGACGGCCGCCACUCUUACCAUCCAGCGGAGUGAUGUUCCGCCCGAGUGAUGUUCGGAGAGGACCGGGUCUGUUGUAA [Exclusion Tryptophan B GF30] | 117 | 103 | 108 | 89.1 | 98.9
CCUAUCUCAUACGAUACCAGUCAAUGAUCUUUGAUCAAUGCCAUCACCGAGUGAUGUUCGGACCCUUGGCAGCGUAUGAGAUGGG [whbob_Ex_Theo_B_sa104] | 276 | 203 | 255 | 376 | 246

Sequence | apparent KD of K4 kissing-loop reporter (input ligand: FMN 200 uM) [nM] | apparent KD of K4 kissing-loop reporter (input ligand: arginine 13.2 mM) [nM] | apparent KD of K4 kissing-loop reporter (input ligand: none) [nM] | apparent KD of K4 kissing-loop reporter [1] [nM] | apparent KD of K4 kissing-loop reporter [2] [nM]
CCUAUCUCAUACGAUACCAGUGAAUUUAUGUUUAUUAGCAGUGAUGUUGCGUUCCAAGUACACCCUUGGCAGCGUAUGGGAUAGG [Ex Theophylline B K4 24] | 139 | 168 | 147 | 143 | 113
CCUAUCUCAUACGAUACCAGUGAUUAACCAGUGAUGUUGGAAUAACCAAGGAAUAUUUUUCACCCUUGGCAGCGUAUGGGAUAGG [Ex Theophylline B K4 26] | 78 | 38 | 59.1 | 61.9 | 49.6
CCUAUCUGUUACGAUACCAGUCAAUGAUAUUUUAUCAAUGCCCUCACCGAGUGAUGUUCGGACCCUUGGCAGCGUCUGGGAUAGG [tyygpimullin] | 160 | 148 | 171 | 153 | 151
CCUGCCAGCACGGCCGCCACUUCUAUUGUAUCUAUUUUUGUAAUCCUUUAGGAGUGAUGUUUUUAAAGGACCGGGUGAUGGCUGA [theeternabot_exclusion_KL_Trp_B_14] | 446 | 248 | 398 | 356 | 410
CCUGGCGAGGUAACGUGGAUAUCUCGUCGCAAGGAUAUCUGGAAACAGAGAAGGUGCUACAUUACCGGCAGUGAUGUUGCUGACC | 841 | 336 | 426 | 455 | 274
CCUUCCCUUGAUAGUGAUGUUAUCAAGGACAAGGAUAUCAUCUCAAUGAGAAGGUGUCCUUGAUAACAUGGAGGUCUGAAACAGA [Omei KL FMN A Exc C v2] | 279 | 125 | 132 | 128 | 139
CCUUCCGACACGGCCGCCACUAAUUUCAUCAGAUUGCCCGGAUUUCCAAGAUAGUGAUGUUGUACUAGGACCGGGUGUCAGGUCG [theeternabot_exclusion_KL_Trp_B_16] | 874 | 680 | 816 | 760 | 775
CGAGUCCUGAGGAGUGAUGUUCCUCGGCCACGAGGACCGGUACGGCCGCCACUCGUUACUCGAGCUUAGUAGCUAGCACUAAGCC [Zaussora] | 189 | 164 | 179 | 186 | 109
CGAGUGAUGUUCGAAGAGUUGUUAAGCGAUACCAGCCAGGAAACUGGCCCUUGGCAGCGUAAUAAAUAAAUAAAUAAAUGAUCAC [Theophylline A Exclusion; Euphoria Solution] | 425 | 438 | 472 | 430 | 372
CGAUGGAUGGCAGGAUAUAGACAUUGAGUGAUGUUCGAUGAUUAUCCAUAUUCCCGUCACCUAAGACUAGAAGGGCCAUCCAUCG | 554 | 167 | 205 | 191 | 198
CGAUGUUCCUGGGAUACCAGUCGGAGUCUCAGAGCUCGGAGUGAUGUUCUGGGAUGUUUCGGCCCUUGGCAGCUCUGGGACUCCC [#2 Exclusion - Theophylline B Attempt #23 (HarryS)] | 843 | 615 | 818 | 682 | 722
CGAUUUGCUUCAGCCUUAGUGAUGUUAAGGCGAGGACCGGUACGGCCGCCACUCGUAGGUUAUGUGCACGGCGGCGCUAAGGGCC [theeternabot_exclusion_KL_Trp_A_36] | 109 | 107 | 111 | 120 | 108
CGCACACUUGUUGAUACCAGAAGCCGACCGGAAACAUCAUUGAGUGAUGUUCAAGCUGUUUUCCCUUGGCAGCAAACGAGUGGUC [theeternabot_exclusion_KL_Theo_B_22] | 150 | 120 | 138 | 132 | 138
CGCAGUGAUGUUGCGAGUAGCUACAGGGAAGGAGCGCUUUAGUAAGCAGGUAGGUCGCCCACGCAGUGAUGUUGCGUCAUAGGGU [Exclusion Arginine A GF 19] | 118 | 106 | 108 | 109 | 88.4
CGCAGUGAUGUUGCGAGUAGCUACAGGGAAGGAGCGUGCUAGAGCACAGGUAGGUCGCCCUCGGGCAGUGAUGUUGCCAAAGGUU [Exclusion ARginine A GF 16] | 77.1 | 85.2 | 79.8 | 80.6 | 68.3
CGCCGCAAGGCGGUCCUGCCCACUCCGGAAGGAGCGCCCGCAAGGGCAGGUAGGUCGCCGGAGUGAUGUUCCGGUGGCAGGACCG [#2 Exclusion - Arginine A Attempt #4 (Inspired by Omei)] | 477 | 112 | 422 | 264 | 245
CGCGACGUGGUCACGCCAGUCUCGUUAACCAAGGAUAUUGAGAAGACAAGAAGGUGGAUGUACCAUAGUGAUGUUGUGGUCAGUA [theeternabot_sameState_KL_FMN_A_17] | 416 | 356 | 465 | 448 | 388
CGCGCGGGUUUGAGAGGGUUCGCGCGAAGUGAGGAUAUUUAGGGAGAAAGAAGGCACUAUAAAAUAUAGUGAUGUUAUAUAAGGG [SSFMNA.H] | 699 | 93.9 | 1110 | 371 | 342
CGCGUUGGUUGAGAGGUUGGCGCGAAUGAUACCAGUAUAUAAGAAUACCCUUGGCAGCAUAAGAAAGAUAUAGUGAUGUUGUAUA [SSTheophA.I] | 469 | 232 | 454 | 289 | 420
CGCUGGGCGAGUGAUGUUCGCUCACGUGAUACCAGUGCCAUCCAACACCCUUGGCAGCACGCGGGCAGUGAUGUUGUCCUUAGUG [Exclusion Theophylline A GF8] | 127 | 123 | 128 | 125 | 116
CGCUUAGUGAUGUUUGAUUUGGCGCAUGCAGAGGAUAUAGGGUGCUUUAGAAGGCUGAGGAGUGCGCCGAGUGAUGUUCGGCGCU [Exclusion FMN A GF12] | 183 | 141 | 212 | 162 | 166
